Source: patent publication US20110129459A1 (Chugai, published 2011)

T1: cytoplasmic domain-lacking human NR10 on CHO cells (hNR10-expressing CHO cells) (human, UniProt Q8NI17 20-553)
T1 construct: also called NR10-expressing cells
T1 sequence: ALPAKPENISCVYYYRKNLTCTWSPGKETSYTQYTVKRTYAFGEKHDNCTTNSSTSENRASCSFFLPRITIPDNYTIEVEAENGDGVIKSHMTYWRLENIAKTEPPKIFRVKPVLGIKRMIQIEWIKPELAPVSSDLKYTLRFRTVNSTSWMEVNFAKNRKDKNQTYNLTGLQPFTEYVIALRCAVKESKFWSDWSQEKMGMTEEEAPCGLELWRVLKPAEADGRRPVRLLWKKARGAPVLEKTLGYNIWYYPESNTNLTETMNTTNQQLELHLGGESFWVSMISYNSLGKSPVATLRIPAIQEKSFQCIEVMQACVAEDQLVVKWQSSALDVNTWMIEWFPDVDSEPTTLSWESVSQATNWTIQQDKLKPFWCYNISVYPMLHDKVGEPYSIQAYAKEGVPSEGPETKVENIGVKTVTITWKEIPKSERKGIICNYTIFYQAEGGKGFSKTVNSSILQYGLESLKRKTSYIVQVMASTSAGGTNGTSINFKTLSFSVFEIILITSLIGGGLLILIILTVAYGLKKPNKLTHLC

B1: chimeric NA633 (human gamma1, kappa) (antibody, V domains shown)
VH: DVQLRESGPGLVKPSQSLSLTCTVTGYSITSDYAWNWIRQFPGNKLEWMGYISYSGSTSYNPSLKSRVSITRDTSKNQFFLQLNSVTTEDTATYYCAPMITTDWFFDVWGAGTTVTVSS
VL: DIVMTQSPATLSVTPGDRVSLSCRASHDISDFLHWYQQKSHESPRLLIKYASQSISGIPSRFSGSGSGSDFTLSINSVEPEDVGVYYCQNGHSFPWTFGGGTKLEIK
notes: Mouse variable regions with human constant regions (H chain gamma1)
B2: chimeric NS22 (human gamma1, kappa) (antibody, V domains shown)
VH: EVQLQQSGPELVKPGASMKISCKASGYSFTGYIMNWVKQSHGKNLEWIGLINPYNGGTSYNQKFKGKATLTVDKSSSTAYMELLSLTSEDSAVYYCARDGYDDGPYTMDYWGQGTSVTVSS
VL: DIQMTQSPASLSASVGETVTITCRTSENIYSFLAWYQQKQGKSPHLLVYNAKTLAKGVPSRFSGSGSGTQFSLKINSLQPEDFGSYFCQHHYESPLTFGGGTKLEIK
notes: also called chimeric NS22 antibody; the chimeric antibody
B3: chimeric NS23 (human gamma1, kappa) (antibody, V domains shown)
VH: EVQLQQSGPELVKPGTSMKISCKASGYSFTGYIMNWVKQSHGKNLEWIGLINPYNGGAEYNQKFKDKATFTVDKSSSTAYMELLSLTSEDSAVYYCARDGYDDGPYTMDYWGQGTSVTVSS
VL: DIQMTQSPASLSASVGETVTFTCRANENIYSYLAWYQQKQGKSPQLLVYNAKTLAEGVPSRFSGSGSGTQFSLKINSLQPEDFGSYYCQHHYGTPPTFGGGTKLEIK

How the values were obtained:
[1] = molecular target: T1, cytoplasmic domain-lacking human NR10 …; assay: FMAT competition on hNR10-expressing CHO cells: antibody titrated against FMAT Blue-labeled hIL-31; FL1 = cell-bound labeled hIL-31
Method: (§1) Human IL-31 (R&D Systems) was labeled with FMAT Blue Monofunctional Reactive Dye (Applied Biosystems). 100 μl of hIL-31 prepared at 0.5 mg/ml using 50 mM sodium phosphate buffer (pH 8.0) was mixed with 5.25 μl of 25 nmoles FMAT Blue dissolved in DMSO (Junsei). After vortexing, the mixture was allowed to stand at room temperature for 15 minutes. The FMAT Blue-conjugating reaction with hIL-31 was terminated by adding 5 μl of 1 M Tris-HCl (pH 7.4) and 1.1 μl of 10% Tween20, and then FMAT Blue-labeled hIL-31 and unreacted FMAT Blue were separated by gel filtration using Superdex 75 (GE Healthcare, 17-0771-01) column with 0.1% Tween20/PBS developing solution.
NS22 and NA633 (the constant region of each is γ1, κ) were diluted at an appropriate concentration using Assay buffer (10 mM HEPES, 140 mM NaCl, 2.5 mM CaCl₂, 3 mM MgCl₂, 2% FBS, 0.01% NaN₃), and then seven serial dilutions were prepared at a common dilution ratio of 2. The dilutions were added at 40 μl/well to plates (96-Well FMAT Plates; Applied Biosystems). Then, FMAT Blue-labeled hIL-31 was diluted 400 times with Assay buffer and added at 20 μl/well. Finally, cell suspensions adjusted to 2.5×10⁵ cells/ml using Assay buffer were added at 40 μl/well (final 1×10⁴ cells/well). Two hours after addition of cells, the fluorescence (FL1) was determined using the 8200 Cellular Detection System (Applied Biosystems).

[2] = molecular target: T1, cytoplasmic domain-lacking human NR10 …; assay: FMAT competition on hNR10-expressing CHO cells: unlabeled chimeric antibody titrated against 8.8x10^-2 µg/ml FMAT Blue-NS22; FL1 = cell-bound labeled NS22
Method: The antibody NS22 purified from a hybridoma culture supernatant was labeled with FMAT Blue (Applied Biosystems, 4328853). 170 μl of NS22 prepared at 1 mg/ml in PBS was mixed with 17 μl of 1 M NaHCO₃ solution and 3.4 μl of FMAT Blue (17 nmoles) dissolved in DMSO. After vortexing, the mixture was allowed to stand at room temperature for 30 minutes. The FMAT Blue conjugating reaction with NS22 was terminated by adding 8 μl of 1 M Tris-HCl (pH 7.4) and 1.9 μl of 1% Tween 20, and then FMAT Blue-labeled NS22 (FMAT Blue-NS22) and unreacted FMAT Blue were separated by gel filtration using Superdex 75 (GE Healthcare, 17-0771-01) column with 0.01% Tween20/PBS developing solution.
Each antibody was examined for inhibition of the binding of the prepared FMAT Blue-NS22 to hNR10-expressing CHO cells (Referential Example 3) using the 8200 Cellular Detection System (Applied Biosystems, 4342920). The chimeric anti-NR10 antibodies (the constant region of each is γ1, κ) were added at various concentrations to each well containing 7500 cells and 8.8×10⁻² μg/ml FMAT Blue-NS22. The cells were allowed to stand in the dark for four hours, and then the fluorescent signal from FMAT Blue bound to the cells was measured. […] The fluorescence value FL1, which represents the binding of FMAT Blue-NS22 to NR10-expressing cells, was reduced with the increase in the concentration of antibody NS22 or NS23.

[3] = molecular target: T1, cytoplasmic domain-lacking human NR10 …; assay: FMAT competition on hNR10-expressing CHO cells: antibody titrated against FMAT Blue-labeled hIL-31; FL1 = cell-bound labeled hIL-31; remark: listed apart in the source
Method: as §1
Antibodies were assessed for the activity of inhibiting the IL-31/NR10 binding by using hNR10-expressing CHO cells as described below. The chimeric NS22 antibody and NS22_H0L0 (H chain, H0-SKSC/SEQ ID NO: 54; L chain, L0/SEQ ID NO: 56) were diluted at an appropriate concentration using Assay buffer (10 mM HEPES, 140 mM NaCl, 2.5 mM CaCl₂, 3 mM MgCl₂, 2% FBS, 0.01% NaN₃, pH7.4), and further eight serial dilutions were prepared at a common dilution ration of 2. The dilutions were added at 40 μl/well to plates (96-Well FMAT Plates, Applied Biosystems). Then, FMAT Blue-labeled hIL-31 was diluted 400 times with Assay buffer, and added at 20 μl/well. Finally, a cell suspension adjusted to 2.5×10⁵ cells/ml using Assay buffer was added at 40 μl/well (final 1×10⁴ cells/well). Two hours after addition of cells, the fluorescence (FL1) was measured using the 8200 Cellular Detection System (Applied Biosystems).

Row | Binder | binding result [1] | IC50 (read off the curve) [2] [µg/mL] | IC50 (read off the curve) [3] [µg/mL]
1 | B1 | binds | – | –
2 | B2 | – | ~0.5 | ~0.1
3 | B3 | – | ~0.5 | –
